# Source: patent publication US20080102477
# T1: BubR1 (amino acids 1-514) GST-fusion protein, O60566
# T1 chain: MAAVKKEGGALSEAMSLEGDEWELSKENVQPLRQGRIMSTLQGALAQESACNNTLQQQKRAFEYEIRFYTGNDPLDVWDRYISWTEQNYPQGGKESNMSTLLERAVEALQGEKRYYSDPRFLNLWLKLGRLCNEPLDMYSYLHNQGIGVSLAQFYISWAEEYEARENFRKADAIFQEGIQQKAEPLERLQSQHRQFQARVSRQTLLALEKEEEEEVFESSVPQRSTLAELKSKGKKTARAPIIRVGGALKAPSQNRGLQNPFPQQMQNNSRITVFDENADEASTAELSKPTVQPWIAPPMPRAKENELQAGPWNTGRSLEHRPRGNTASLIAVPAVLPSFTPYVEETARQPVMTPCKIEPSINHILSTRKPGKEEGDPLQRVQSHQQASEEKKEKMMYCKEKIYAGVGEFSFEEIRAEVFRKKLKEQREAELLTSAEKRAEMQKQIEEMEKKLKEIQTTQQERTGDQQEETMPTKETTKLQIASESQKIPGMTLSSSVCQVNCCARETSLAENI
# Target: T1, BubR1 (amino acids 1-514) GST-fusion …
protein,measurement,value
PCAF (amino acids 352-832) GST-fusion protein (protein) MLEEEVYSQNSPIWDQDFLSASSRTSQLGIQTVINPPPVAGTISYNSTSSSLEQPNAGSSSPACKASSGLEANPGEKRKMTDSHVLEEAKKPRVMGDIPMELINEVMSTITDPAAMLGPETNFLSAHSARDEAARLEERRGVIEFHVVGNSLNQKPNKKILMWLVGLQNVFSHQLPRMPKEYITRLVFDPKHKTLALIKDGRVIGGICFRMFPSQGFTEIVFCAVTSNEQVKGYGTHLMNHLKEYHIKHDILNFLTYADEYAIGYFKKQGFSKEIKIPKTKYVGYIKDYEGATLMGCELNPRIPYTEFSVIIKKQKEIIKKLIERKQAQIRKVYPGLSCFKDGVRQIPIESIPGIRETGWKPSGKEKSKEPRDPDQLYSTLKSILQQVKSHQSAWPFMEPVKRTEAPGYYEVIRFPMDLKTMSERLKNRYYVSKKLFMADLQRVFTNCKEYNPPESEYYKCANILEKFFFSKIKEAGLIDK,in vitro acetylation assay (Western blot with anti-acetyl lysine antibodies; MALDI-MS and MS/MS of pepsin peptides),the appearance of a 42 Da acetylation peak in the presence of active PCAF (PCAF 352-832) confirmed that lysine 250 (K250) is the acetylation site of BubR1
